In patent publication US20170174750A1:

Columns and labels:
[1] = molecular target: endogenous Bcr-Abl of K562 cells (human leukemia Bcr-Abl+ cells; wild-type, unmutated) (human) (UniProt P11274)
[2] = molecular target: p210 BCR-ABL1 T315I kinase domain mutant stably expressed in Ba/F3 cells (Homo sapiens (Human)) (UniProt P11274)
[3] = molecular target: p210 Bcr-Abl (native, non-mutated) stably expressed in Ba/F3 cells (Homo sapiens (Human)) (UniProt P11274)
[4] = molecular target: p210 BCR-ABL1 E255V kinase domain mutant stably expressed in Ba/F3 cells (Homo sapiens (Human)) (UniProt P11274)
[5] = molecular target: p210 BCR-ABL1 T315I kinase domain mutant stably expressed in Ba/F3 cells (Homo sapiens (Human)) (UniProt P11274); remark: listed apart in the source
[6] = molecular target: p210 BCR-ABL1 E255V/T315I compound mutant stably expressed in Ba/F3 cells (Homo sapiens (Human)) (UniProt P11274)

| colony forming assay (transformative ability) of K562 cells (fold decrease) [1] | colony forming assay (transformative ability) of Ba/F3-p210-T315I cells [2] | apoptosis (Annexin V / 7-AAD, 72 h) of Ba/F3 cells expressing native BCR-ABL1 (fold increase) [3] | cell proliferation (MTS assay) of Ba/F3 cells expressing native BCR-ABL1 (fold reduction) [3] | cell proliferation (MTS assay) of Ba/F3 cells expressing BCR-ABL1 E255V (fold reduction) [4] | colony formation assay of Ba/F3 cells expressing BCR-ABL1 E255V (fold reduction) [4] | cell proliferation (MTS assay) of Ba/F3 cells expressing BCR-ABL1 T315I (fold reduction) [5] | colony formation assay of Ba/F3 cells expressing BCR-ABL1 T315I (fold reduction) [5] | colony formation assay of Ba/F3 cells expressing BCR-ABL1 E255V/T315I [6] | Binder |
| --- | --- | --- | --- | --- | --- | --- | --- | --- | --- |
| 3 | 40% | – | – | – | – | – | – | – | EGFP-CC^mut3 (expressed from pEGFP-CC^mut3) (designed binder) MVDPVGFAEAWKAQFPDSEPPRMELRSVGDIEQELERAEARIRRDEQRVNQERFRMIYLETLLAKEKKSYDR |
| – | – | 3 | > 2 | 3 | > 10 | 3 | > 10 | 50% | mCherry-CC^mut3 fusion (expressed from pmCherry-CC^mut3) (designed binder) MVDPVGFAEAWKAQFPDSEPPRMELRSVGDIEQELERAEARIRRDEQRVNQERFRMIYLETLLAKEKKSYDR |
